Source: publication PMC4277623, “Synthesis and Preliminary Evaluation of a New ^99mTc Labeled Substance P Analogue as a Potential Tumor Imaging Agent” (Iranian Journal of Pharmaceutical Research : IJPR, 2015)
Read-outs that look alike come from different tables or passages of the source.

How the values were obtained:
[1] = Stability in aqueous solution; format: physicochemical; details: reaction mixture at 25 °C up to 24 h; sampled 1, 4, 24 h; RP-HPLC
Protocol: The stability of radiolabeled peptide in aqueous solution was evaluated by incubation of the reaction mixture at room temperature (25 °C)up to 24 h.Stability in human serum at 37 °C was tested in parallel after adding 100 μL of reaction mixture to 1ml of fresh human serum. The incubation mixtures were sampled at 1, 4, and 24 h time points. Serum samples (100-200 μL) were treated with ethanol (200-400 μL) and centrifuged (4000 g, 5 min, 4 °C) to precipitate the serum proteins. 20-100 μL aliquots from the supernatant were separated to assess the degradation of ^99mTc labeled peptide by RP-HPLC (method I). 100 μL aliquots from the 25 °C incubated mixture were passed through a […] to eliminate possible ^99mTc colloids and then, 5-20 μL of filtrate were analyzed by RP-HPLC as well.

[2] = Protein binding in human serum; format: in vitro ADME; details: fresh human serum, 2 h incubation; ethanol precipitation, centrifugation; γ-counter
Protocol: For protein binding estimation, freshly labeled peptide solution was filtered through a […] and a 100 μL aliquot of filtrate was incubated in 1ml fresh human serum for 2 h. After ethanol treatment and centrifugation (4000 g, 5 min, 4 °C), all the supernatant was completely removed. A slight wash with 1x phosphate-buffered saline (PBS) was done on the surface of the sediment and the eluate was added to the removed supernatant. The total activity of the supernatant and the activity of the sediment were measured by well-type NaI γ-counter to determine the percentage of radio peptide bound or transferred to albumin and other serum proteins.

[3] = Log P, octanol/PBS partition; format: physicochemical; details: shake-flask octanol/PBS, vortexed 10 min, γ-counter, three aliquots per layer averaged
Protocol: In a 2 mL microtube, 0.5 mL of the^99mTc labeled peptides in PBS was mixed with 0.5 mL of octanol. The tube was vigorously vortexed over a period of 10 min and centrifuged at 4000g for 5 min. Three aliquots of 100 μL were sampled from eachlayer and counted in theγ counter. The averaged activities from the aqueous and the octanol layers were used to calculate the log p-values. The octanol-to-water partition coefficient (Po/w) of the radiolabeled peptides was calculated by dividing the counts of the octanol phase by that of the aqueous phase.

[4] = Biodistribution in tumor bearing nude mice; format: in vivo; details: male, nude, mouse, iv, total radioactivity, mean ± SEM; for tissue uptake at 1 h: 1 h p.i.; for tissue uptake at 4 h: 4 h p.i.
Protocol: (§1) Male albino mice in a weight range of18-24 g were used for normal mice treatments and malenude mice (6 to 8 weeks old) were used for in-vivo tumor treatments. The mice were housed at controlled room temperature (25 °C) in a 12 h light/12 h dark schedule. They were kept in standard cages with free access to food and water except during the experiments. The nude mice were grown and kept in isolated sterile condition. All animal experiments were carried out in compliance with our institutional ethical guidelines.
(§2) U373MG cells were grown and harvested by trypsinization. Cells were washed twice with fresh RPMI medium containing 20% FBS and centrifuged for 5 min at 200 g. Pellets were resuspended in RPMI medium containing 20% FBS. A 100 µL suspension of 4 × 10^6 cells was subcutaneously injected on the right flank of each nude mouse. After four weeks, the size of inducted tumors was suitable for biodistribution study and mice were injected via the tail vein with radiolabeled peptide in two groups in the presence and absence of block. They sacrificed at 1 h and 4 h time points to assay the biodistribution. They were dissected and % ID/g of tissues was measured as described above. Finally, tumor-to-organ ratios were calculated.

U373MG tumor = test: Biodistribution in tumor bearing nude mice; format: in vivo
Protocol: as §1, §2

[5] = U373MG tumor, U373MG tumor, blocked tumor bearing nude mice (excess SP), P< 0.01 vs nonblocked, read-out: %ID/g Tumor
[6] = blood, Blood, blocked tumor bearing nude mice (excess SP), read-out: %ID/g Blood
[7] = bone, Bone, blocked tumor bearing nude mice (excess SP), read-out: %ID/g Bone
[8] = bone, Bone, tumor bearing nude mice, i.v., n=3, read-out: %ID/g Bone
[9] = heart, Heart, blocked tumor bearing nude mice (excess SP), read-out: %ID/g Heart
[10] = heart, Heart, tumor bearing nude mice, i.v., n=3, read-out: %ID/g Heart
[11] = kidneys, Kidneys, blocked tumor bearing nude mice (excess SP), read-out: %ID/g Kidneys
[12] = kidneys, Kidneys, tumor bearing nude mice, i.v., n=3, read-out: %ID/g Kidneys
[13] = muscle, Muscle, blocked tumor bearing nude mice (excess SP), read-out: %ID/g Muscle
[14] = muscle, Muscle, tumor bearing nude mice, i.v., n=3, read-out: %ID/g Muscle
[15] = salivary gland, Salivary G., blocked tumor bearing nude mice (excess SP), read-out: %ID/g Salivary G.
[16] = salivary gland, Salivary G., tumor bearing nude mice, i.v., n=3, read-out: %ID/g Salivary G.
[17] = spleen, Spleen, blocked tumor bearing nude mice (excess SP), read-out: %ID/g Spleen
[18] = spleen, Spleen, tumor bearing nude mice, i.v., n=3, read-out: %ID/g Spleen
[19] = stomach, Stomach, blocked tumor bearing nude mice (excess SP), read-out: %ID/g Stomach
[20] = stomach, Stomach, tumor bearing nude mice, i.v., n=3, read-out: %ID/g Stomach

With CC(C)C[C@H](NC(=O)CNC(=O)[C@H](Cc1ccc(O)cc1)NC(=O)[C@H](Cc1ccccc1)NC(=O)[C@H](CCC(N)=O)NC(=O)[C@H](CCC(N)=O)NC(=O)[C@@H]1CCCN1C(=O)[C@H](CCCCN)NC(=O)[C@@H]1CCCN1C(=O)[C@H](CCCNC(=N)N)NC(=O)c1ccc(NN)nc1)C(=O)N[C@@H](CC[S+](C)[O-])C(N)=O (stereo partly shown) [^99mTc-HYNIC-Tyr^8-Met(O)^11-SP, metal not drawn] the “stability in aqueous solution” value [1] was “good stability”, the fraction unbound at 2 h [2] was 0.56 and the “log P” value [3] was -3.75. The tissue uptake at 1 h [4, 5] was 1.36 ± 0.19 %ID/g, the tissue uptake at 4 h [4, 5] was 0.54 ± 0.08 %ID/g and the tissue uptake at 4 h ([4]; U373MG tumor, U373MG tumor, tumor bearing nude mice, i.v., n=3, read-out: %ID/g Tumor) was 1.26 ± 0.11 %ID/g. The tissue uptake at 1 h [4, 6] was 1.7 ± 0.14 %ID/g, the tissue uptake at 4 h [4, 6] was 0.52 ± 0.15 %ID/g and the tissue uptake at 4 h ([4]; blood, Blood, tumor bearing nude mice, i.v., n=3, read-out: %ID/g Blood) was 0.41 ± 0.12 %ID/g. It also gave a tissue uptake at 1 h [4, 7] of 0.66 ± 0.07 %ID/g, a tissue uptake at 4 h [4, 7] of 0.31 ± 0.03 %ID/g and a tissue uptake at 1 h [4, 8] of 0.52 ± 0.06 %ID/g. For the same compound, the tissue uptake at 4 h [4, 8] was 0.27 ± 0.03 %ID/g, the tissue uptake at 1 h [4, 9] was 0.98 ± 0.09 %ID/g and the tissue uptake at 4 h [4, 9] was 0.23 ± 0.02 %ID/g. For the same compound, the tissue uptake at 1 h [4, 10] was 0.78 ± 0.11 %ID/g, the tissue uptake at 4 h [4, 10] was 0.25 ± 0.02 %ID/g and the tissue uptake at 1 h [4, 11] was 20.2 ± 0.61 %ID/g. For the same compound, the tissue uptake at 4 h [4, 11] was 13.1 ± 0.76 %ID/g, the tissue uptake at 1 h [4, 12] was 19.3 ± 0.65 %ID/g and the tissue uptake at 4 h [4, 12] was 12.8 ± 0.52 %ID/g. It also gave a tissue uptake at 1 h [4, 13] of 0.73 ± 0.09 %ID/g, a tissue uptake at 4 h [4, 13] of 0.09 ± 0.01 %ID/g and a tissue uptake at 1 h [4, 14] of 0.51 ± 0.06 %ID/g. The tissue uptake at 4 h [4, 14] was 0.08 ± 0.01 %ID/g, the tissue uptake at 1 h [4, 15] was 0.95 ± 0.06 %ID/g and the tissue uptake at 4 h [4, 15] was 0.41 ± 0.03 %ID/g. It also gave a tissue uptake at 1 h [4, 16] of 1 ± 0.09 %ID/g, a tissue uptake at 4 h [4, 16] of 0.33 ± 0.04 %ID/g and a tissue uptake at 1 h [4, 17] of 0.34 ± 0.04 %ID/g. For the same compound, the tissue uptake at 4 h [4, 17] was 0.26 ± 0.03 %ID/g, the tissue uptake at 1 h [4, 18] was 0.46 ± 0.07 %ID/g and the tissue uptake at 4 h [4, 18] was 0.32 ± 0.03 %ID/g. It also gave a tissue uptake at 1 h [4, 19] of 0.63 ± 0.13 %ID/g, a tissue uptake at 4 h [4, 19] of 0.26 ± 0.05 %ID/g and a tissue uptake at 1 h [4, 20] of 0.81 ± 0.12 %ID/g. For the same compound, the tissue uptake at 4 h [4, 20] was 0.32 ± 0.03 %ID/g, the “D% Blood” value (U373MG tumor; Blood, decreased percent of %ID/g between 1 h and 4 h, nude mice) was 69% and the “%ID/g Blood” value (U373MG tumor; Blood, tumor bearing nude mice, 1 h p.i., i.v., mean ± SEM, n=3) was 1.32±0.16 %ID/g. For the same compound, the “D% Bone” value (U373MG tumor; Bone, decreased percent of %ID/g between 1 h and 4 h, nude mice) was 48%, the “D% Heart” value (U373MG tumor; Heart, decreased percent of %ID/g between 1 h and 4 h, nude mice) was 68% and the “D% Kidneys” value (U373MG tumor; Kidneys, decreased percent of %ID/g between 1 h and 4 h, nude mice) was 34%. The “%ID/g L. intestine” value (U373MG tumor; L. intestine, blocked tumor bearing nude mice (excess SP), 1 h p.i., mean ± SEM, P< 0.01 vs nonblocked) was 0.73±0.14 %ID/g, the “%ID/g L. intestine” value (U373MG tumor; L. intestine, blocked tumor bearing nude mice (excess SP), 4 h p.i., mean ± SEM, P< 0.01 vs nonblocked) was 0.70±0.16 %ID/g and the “D% L. intestine” value (U373MG tumor; L. intestine, decreased percent of %ID/g between 1 h and 4 h, nude mice) was 3%. For the same compound, the “%ID/g L. intestine” value (U373MG tumor; L. intestine, tumor bearing nude mice, 1 h p.i., i.v., mean ± SEM, n=3) was 1.89±0.15 %ID/g, the “%ID/g L. intestine” value (U373MG tumor; L. intestine, tumor bearing nude mice, 4 h p.i., i.v., mean ± SEM, n=3) was 1.83±0.06 %ID/g and the “%ID/g Liver” value (U373MG tumor; Liver, blocked tumor bearing nude mice (excess SP), 1 h p.i., mean ± SEM) was 0.96±0.10 %ID/g. The “%ID/g Liver” value (U373MG tumor; Liver, blocked tumor bearing nude mice (excess SP), 4 h p.i., mean ± SEM) was 0.50±0.08 %ID/g, the “D% Liver” value (U373MG tumor; Liver, decreased percent of %ID/g between 1 h and 4 h, nude mice) was 37% and the “%ID/g Liver” value (U373MG tumor; Liver, tumor bearing nude mice, 1 h p.i., i.v., mean ± SEM, n=3) was 0.86±0.09 %ID/g. The “%ID/g Liver” value (U373MG tumor; Liver, tumor bearing nude mice, 4 h p.i., i.v., mean ± SEM, n=3) was 0.54±0.07 %ID/g, the “%ID/g Lung” value (U373MG tumor; Lung, blocked tumor bearing nude mice (excess SP), 1 h p.i., mean ± SEM) was 1.53±0.25 %ID/g and the “%ID/g Lung” value (U373MG tumor; Lung, blocked tumor bearing nude mice (excess SP), 4 h p.i., mean ± SEM) was 0.67±0.09 %ID/g. For the same compound, the “D% Lung” value (U373MG tumor; Lung, decreased percent of %ID/g between 1 h and 4 h, nude mice) was 48%, the “%ID/g Lung” value (U373MG tumor; Lung, tumor bearing nude mice, 1 h p.i., i.v., mean ± SEM, n=3) was 1.47±0.15 %ID/g and the “%ID/g Lung” value (U373MG tumor; Lung, tumor bearing nude mice, 4 h p.i., i.v., mean ± SEM, n=3) was 0.76±0.12 %ID/g. For the same compound, the “D% Muscle” value (U373MG tumor; Muscle, decreased percent of %ID/g between 1 h and 4 h, nude mice) was 84%, the “%ID/g S. intestine” value (U373MG tumor; S. intestine, blocked tumor bearing nude mice (excess SP), 1 h p.i., mean ± SEM, P< 0.01 vs nonblocked) was 0.83±0.12 %ID/g and the “%ID/g S. intestine” value (U373MG tumor; S. intestine, blocked tumor bearing nude mice (excess SP), 4 h p.i., mean ± SEM, P< 0.05 vs nonblocked) was 0.36±0.09 %ID/g. For the same compound, the “D% S. intestine” value (U373MG tumor; S. intestine, decreased percent of %ID/g between 1 h and 4 h, nude mice) was 70%, the “%ID/g S. intestine” value (U373MG tumor; S. intestine, tumor bearing nude mice, 1 h p.i., i.v., mean ± SEM, n=3) was 2.57±0.34 %ID/g and the “%ID/g S. intestine” value (U373MG tumor; S. intestine, tumor bearing nude mice, 4 h p.i., i.v., mean ± SEM, n=3) was 0.78±0.07 %ID/g. For the same compound, the “D% Salivary G.” value (U373MG tumor; Salivary G., decreased percent of %ID/g between 1 h and 4 h, nude mice) was 66%, the “D% Stomach” value (U373MG tumor; Stomach, decreased percent of %ID/g between 1 h and 4 h, nude mice) was 61% and the “D% Tumor” value (U373MG tumor; U373MG tumor, decreased percent of %ID/g between 1 h and 4 h, nude mice) was 62%. For the same compound, the “%ID/g Tumor” value (U373MG tumor; U373MG tumor, tumor bearing nude mice, 1 h p.i., i.v., mean ± SEM, n=3) was 3.36±0.26 %ID/g.
